Assay results published in patent publication US20070089183A1 (WASHINGTON STATE UNIVERSITY, published 2007).

Molecular target: dansyl-CaM (Sigma) (Homo sapiens (Human), UniProt P0DP23 2-149)
Test: fluorescence titration of dansyl-CaM with increasing amounts of peptide

CRKKYRAIGTFMSVYYKSKKGR (also called synthetic DWF1 CaMBD) [synthetic DWF1 CaM-binding peptide (518-539), CRKKYRAIGTFMSVYYKSKKGR]
Kd: 24.2 nM
